Laboratory results from patent CN114907482A.

Molecular target: 人Claudin18.2 (human) (UniProt P56856)
Assay: cell-based or functional assay

Row | 活细胞比率 (CDC, 20%人血浆, 30min, 293T-hClaudin18.2细胞; 无抗体对照81.34%) | Binder
1 | 34% | 鼠单抗1B10 (antibody, V domains shown) VH: QVQLKESGPGLVAPSQSLSITCTVSGFSLTSYVINWVRQPPGKGLEWLGVIWTGGGTNYNSALKSRLSISKDTSKSQVFLKMNSLQTDDTARYYCARGAYYGNAMDYWGQGTSVTVSS VL: DIVMTQSPSSLTVTAGEKVTMSCKSSQSLLNSGNQKNYLTWYQQKPGQPPKLLIYWAATRESGVPDRFTGSGSGTDFTLTISSVQAEDLAVYYCQNDYSYPFTFGSGTKLEIK
2 | 3.94% | 鼠单抗1A6 (antibody, V domains shown) VH: QVQLQQPGAELVKPGASVKLSCKASGYTFTSYWMQWVKQRPGQGLEWIGMTHPNSGGTNYNEKFKSKATLTVDKSSSTAYMQLSSLTSEDSAVYYCARLGRGNAMDYWGQGTSVTVSS VL: DIVMTQSPSSLTVTAGEKVTMSCKSSQSLLNSGNQKNYLTWYQQKPGQPPKLLIYWASTRKSGVPDRFTGSGSGTDFTLTISSVQAEDLTIYYCQNDYSYPFTFGSGTKLEIK
